# B1: mCherry-Cavin3 (natural protein, mouse, UniProt Q91VJ2 1-260, looked up)
# chain: MGESALEPGPVPETPAGGPVHAVTVVTLLEKLATMLEALRERQGGLAERQGGLAGSVRRIQSGLGALSRSHDTTSNTLTQLLAKAERVGSHADAAQERAVRRAAQVQRLEANHGLLVARGKLHVLLFKEETEIPARAFQKVPELLGPEDQLVLGPDQPEDEVGESSEEEPVESRAQRLRRTGLQKVQSLKRALSSRKAAQPTPVKPPRVGPVRSSEGPSEGQPAAQPEMESELETALEPEPPQPTKEDPEKPVLQIESAA
# notes: Murine Cavin-3 (PRKCDBP), amplified from NIH-3T3 fibroblast cDNA, in an mCherry vector; also called mCherry-tagged Cavin3; source: MCF-7, transfected, in lysate (cytosolic or PNS fraction)
# B2: mCherry-Cavin1 (natural protein, mouse, UniProt O54724 1-392, looked up)
# chain: MEDVTLHIVERPYSGFPDASSEGPEPTQGEARATEEPSGTGSDELIKSDQVNGVLVLSLLDKIIGAVDQIQLTQAQLEERQAEMEGAVQSIQGELSKLGKAHATTSNTVSKLLEKVRKVSVNVKTVRGSLERQAGQIKKLEVNEAELLRRRNFKVMIYQDEVKLPAKLSVSKSLKESEALPEKEGDELGEGERPEDDTAAIELSSDEAVEVEEVIEESRAERIKRSGLRRVDDFKKAFSKEKMEKTKVRTRENLEKTRLKTKENLEKTRHTLEKRMNKLGTRLVPVERREKLKTSRDKLRKSFTPDHVVYARSKTAVYKVPPFTFHVKKIREGEVEVLKATEMVEVGPEDDEVGAERGEATDLLRGSSPDVHTLLEITEESDAVLVDKSDSD
# notes: Murine Cavin-1 (PTRF, caveolae-associated protein 1); oligomeric in MCF-7 cells by burst brightness; also called mCherry-tagged Cavin1; source: MCF-7, transfected, in lysate (cytosolic or PNS fraction)
# Target: T1, GFP-PP1α (UniProt P62136 1-330)
# T1 construct: serine/threonine-protein phosphatase PP1alpha catalytic subunit (PP1α); construct provided by the Trinkle-Mulcahy Laboratory; printed both as GFP-PP1α and PP1α-GFP; also called PP1α-GFP; PP1alpha-GFP; source: MCF-7 or A431, transfected, in lysate
# T1 sequence (P62136 whole entry): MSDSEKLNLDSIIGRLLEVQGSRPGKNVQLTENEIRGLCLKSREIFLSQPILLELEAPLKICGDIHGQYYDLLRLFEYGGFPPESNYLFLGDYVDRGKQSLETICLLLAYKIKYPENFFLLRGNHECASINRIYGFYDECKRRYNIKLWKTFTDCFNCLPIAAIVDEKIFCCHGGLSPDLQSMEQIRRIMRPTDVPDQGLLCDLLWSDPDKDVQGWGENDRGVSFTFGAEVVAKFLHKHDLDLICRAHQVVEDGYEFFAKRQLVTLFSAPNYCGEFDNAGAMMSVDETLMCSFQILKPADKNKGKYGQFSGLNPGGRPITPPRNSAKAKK
# Assay: single-molecule coincidence detection; PNS fraction of MCF-7 cells cotransfected with GFP-PP1α and Cherry-Cavin1 or Cherry-Cavin3, in PBS, diluted to about 1 nM; two-colour confocal detection; C = mCherry/(GFP+mCherry); oligomeric state from burst brightness
# Details: partners not purified
binder,measurement,value
B1,coincidence ratio,0.5
same,stoichiometry N,1
B2,coincidence ratio,0.7
